In patent publication US20090209427A1, “Microbial glyphosate resistant epsps” (priority 2004, published 2009):

Tested on: C=C(OP(=O)(O)O)C(=O)O
Experiment: purified protein, by the assay type
Settings: other: C. crescentus EPSPS, 50 mM K+-HEPES pH 7.0, 1 mM shikimate-3-phosphate, varying [14C]PEP

Caulobacter crescentus EPSPS, native, SEQ ID NO: 9 (Caulobacter vibrioides CB15)
Km: 2.0 µM
